Laboratory results taken from the supplement of paper PMC9170038.

Test system: MS2 coat protein
Test: apparent KD of MS2 coat protein; designed switch direction (-1 OFF switch, 1 ON switch): 1; higher = weaker reporter binding
How it was run: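 Designed RNA switches sharing common flanks were transcribed on Illumina chips by stalled E. coli RNA polymerase. They were titrated with SNAP-549-labelled MS2 coat protein, from 0.7 or 1.5 nM doubling to 3 µM, in Tris-HCl pH 7.5 buffer with KCl, MgCl2, BSA, DTT, tRNA and Tween-20. Titrations ran without input, with 200 uM small-molecule ligand, or with an oligonucleotide input. The apparent KD of each design is the median over its clusters, after curve-fitting of normalised cluster fluorescence.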

[1] = input ligand: microRNA oligo, concentration not stated
[2] = Eterna round: R95, input ligand: FMN 200 uM
[3] = Eterna round: R95, input ligand: microRNA oligo, concentration not stated
[4] = Eterna round: R95, input ligand: none

AUUUUUAAUGCAGGAUAUGAUCAACAUGAGGAUCACCCAUGUGGUGUUGUGAGUAAGGAGAGUGAUCAGAAGGGCAUCUUUUCA [SS-NG2-LRO03] (Eterna round: R96, puzzle: Same State NG 2)
apparent KD of MS2 coat protein (input ligand: FMN 200 uM): 1310 nM
apparent KD of MS2 coat protein [1]: 372 nM
apparent KD of MS2 coat protein (input ligand: none): 758 nM

AGUAGUGUAACAUGAGGAUCACCCAUGUAUGUAUAUGUAACCUAGGAUAUGGAGGUUAUGUUUGACCAGAAGGAGGAUUGUUUA [JR_SSNG3_Sub042] (Eterna round: R96, puzzle: Same State NG 3)
apparent KD of MS2 coat protein (input ligand: FMN 200 uM): 29.7 nM
apparent KD of MS2 coat protein [1]: 28.7 nM
apparent KD of MS2 coat protein (input ligand: none): 33.7 nM

UGGCUCAGACGAGGAUAUACGUGGUCACAUGAGGAUCACCCAUGUCUCGAGCUUCGGCUCGAGGCGUAGAAGGCGUCUGAGCCU [SSNG2/6-A3] (Eterna round: R96, puzzle: Same State NG 2)
apparent KD of MS2 coat protein (input ligand: FMN 200 uM): 112 nM
apparent KD of MS2 coat protein [1]: 133 nM
apparent KD of MS2 coat protein (input ligand: none): 151 nM

ACAUGAGACAUAGGAUAUGUUGUACCUACAUGUGACAUGAGGAUCACCCAUGUGGUAAGUAUGAGGCAGAAGGAUGAGAUAUGU [Equivalence 40 - Jieux - Same State NG 2] (Eterna round: R96, puzzle: Same State NG 2)
apparent KD of MS2 coat protein (input ligand: FMN 200 uM): 50.3 nM
apparent KD of MS2 coat protein [1]: 37 nM
apparent KD of MS2 coat protein (input ligand: none): 74.1 nM

AUAAAACAUGAGGAUCACCCAUGUCAACAAAGUCGAGGAUAUGGGCAAUUAAAAUAAGAACCAGAAGGCGAAUAAU [salish99_ss1_r3_025] (puzzle: Same State 1)
apparent KD of MS2 coat protein [2]: 26.4 nM
apparent KD of MS2 coat protein [3]: 138 nM
apparent KD of MS2 coat protein [4]: 400 nM

AUUAACAUGAGGAUCACCCAUGUUACGAGCUUAGCUCGGACACAGGAUAUCCGGUCCUAGAGACCGGAGAAGGGUGCCUUAUAA [Zara MOD4] (Eterna round: R96, puzzle: Same State NG 3)
apparent KD of MS2 coat protein (input ligand: FMN 200 uM): 742 nM
apparent KD of MS2 coat protein [1]: 123 nM
apparent KD of MS2 coat protein (input ligand: none): 265 nM

GUGGUUCUCGUAGGAUAUGUAGGAUAUCCCUACAUGAGGAUCACCCAUGUUCGCAUGGGAGAAGGACAGAAGGACGAUCGCUAA [pwkr ssNG2 2FMN + 1F5.16] (Eterna round: R96, puzzle: Same State NG 2)
apparent KD of MS2 coat protein (input ligand: FMN 200 uM): 20.9 nM
apparent KD of MS2 coat protein [1]: 11.1 nM
apparent KD of MS2 coat protein (input ligand: none): 53.5 nM

AUACAUGAGGAUCACCCAUGUGAGCAGAGAUAUCUGAUGUACAAGGAUAUCCGAGGGAUCCCGAUGGAGAAGGUGUGCCACCUG [Eternabot solution 22] (Eterna round: R96, puzzle: Same State NG 3)
apparent KD of MS2 coat protein (input ligand: FMN 200 uM): 57.1 nM
apparent KD of MS2 coat protein [1]: 43 nM
apparent KD of MS2 coat protein (input ligand: none): 55.9 nM

AAUUGUUCCUGAGGAUAUCAGUAGUUUGCUCUUUGAGAAGGCAGUACAUGAGGAUCACCCAUGUUGUGGUUUGAUAGAAUGAUA [JR_SSNG1_Sub006] (Eterna round: R96, puzzle: Same State NG 1)
apparent KD of MS2 coat protein (input ligand: FMN 200 uM): 131 nM
apparent KD of MS2 coat protein [1]: 103 nM
apparent KD of MS2 coat protein (input ligand: none): 137 nM

UGGUACAUGGGAGGAUAUCAUGUAGAAACAUGAGGAUCACCCAUGUAGGUGGCACGAUUCGUGAAUGAGAAGGCCCAUGUACCU [JL SSNG1 3.61] (Eterna round: R96, puzzle: Same State NG 2)
apparent KD of MS2 coat protein (input ligand: FMN 200 uM): 312 nM
apparent KD of MS2 coat protein [1]: 225 nM
apparent KD of MS2 coat protein (input ligand: none): 376 nM

GGAUCAUGACGAGGAUAUGGUACAUGAGGAUCACCCAUGUAUGUACCAUAACGCGUACGACGAAACCAGAAGGCGUCGUGGUCG [Mat - Same State NG 2 - JL mod - D40] (Eterna round: R96, puzzle: Same State NG 2)
apparent KD of MS2 coat protein (input ligand: FMN 200 uM): 9.88 nM
apparent KD of MS2 coat protein [1]: 21 nM
apparent KD of MS2 coat protein (input ligand: none): 28 nM

CCAUAGUACAAUUUAGAUCUACAUGAGGAUCACCCAUGUACUGAGGAUAUCAGCUCGAUUAGAGCUGAGAAGGCAGAAGUACUU [SSNG3/6-A2] (Eterna round: R96, puzzle: Same State NG 3)
apparent KD of MS2 coat protein (input ligand: FMN 200 uM): 39.3 nM
apparent KD of MS2 coat protein [1]: 64.6 nM
apparent KD of MS2 coat protein (input ligand: none): 81.1 nM

GAGUGGAGGAAAGGAUAUACAAUGAUAAUCACAGUAGAAGGUUCUAACAUGAGGAUCACCCAUGUAGGACUAUACCUGAGAGAA [Parity 47 - Jieux - Same State NG 1] (Eterna round: R96, puzzle: Same State NG 1)
apparent KD of MS2 coat protein (input ligand: FMN 200 uM): 9.26 nM
apparent KD of MS2 coat protein [1]: 10.8 nM
apparent KD of MS2 coat protein (input ligand: none): 15.5 nM

AGUCCAGCGAAAGCUGGACAAGAGCAUGUACAUGAGGAUCACCCAUGUUCAUGUACAAGCUUUUUGCUCGUCUUAAA [JL mod - D95 - 2] (puzzle: Sensor for hsa-mir-208a)
apparent KD of MS2 coat protein [2]: 384 nM
apparent KD of MS2 coat protein [3]: 14.3 nM
apparent KD of MS2 coat protein [4]: 439 nM

GAUCGUUUGAUAGGAUAUCGCUAUACAUGAGGAUCACCCAUGUUUACCACGCUGGUUUUUCAUACCGAGAAGGAUUCUGAUGAG [salish99_SSNG02_r04_008] (Eterna round: R96, puzzle: Same State NG 2)
apparent KD of MS2 coat protein (input ligand: FMN 200 uM): 64.8 nM
apparent KD of MS2 coat protein [1]: 49.7 nM
apparent KD of MS2 coat protein (input ligand: none): 56.1 nM

GGAGAACAUGAGGAUCACCCAUGUAAGCGUUAGCUAGGAUAUGCGGGAAGGAAGAGAGAAGCAGAAGGAGUCGGUA [JR_SS1_Sub032] (puzzle: Same State 1)
apparent KD of MS2 coat protein [2]: 34.9 nM
apparent KD of MS2 coat protein [3]: 39.4 nM
apparent KD of MS2 coat protein [4]: 67.8 nM

UGUCCAGCCUGAGCUGGACAAAAGCAUGUACAUGAGGAUCACCCAUGUUCAUGUACAAGCUUUUUGCUCGUCUUACU [salish99_208a_r3_081] (Eterna round: R96, puzzle: Sensor for hsa-mir-208a)
apparent KD of MS2 coat protein (input ligand: FMN 200 uM): 534 nM
apparent KD of MS2 coat protein [1]: 12.9 nM
apparent KD of MS2 coat protein (input ligand: none): 400 nM

UGAAUAGUUACAGGAUAUGAGCCGAAAAUUGGGUCAGAAGGGUGGGUGUUGUGCGCUAUGUGCUACAUGAGGAUCACCCAUGUU [SameState NG1 #35] (Eterna round: R96, puzzle: Same State NG 1)
apparent KD of MS2 coat protein (input ligand: FMN 200 uM): 1210 nM
apparent KD of MS2 coat protein [1]: 23.3 nM
apparent KD of MS2 coat protein (input ligand: none): 208 nM

AACCCAAUGGAAGGAUAUGGCACCUUAUUGGUGCCAGAAGGUCCUAACAUGAGGAUCACCCAUGUGGGCCGGUCUUAAGACCGG [Fiskers NG1ss - 8] (Eterna round: R96, puzzle: Same State NG 1)
apparent KD of MS2 coat protein (input ligand: FMN 200 uM): 142 nM
apparent KD of MS2 coat protein [1]: 382 nM
apparent KD of MS2 coat protein (input ligand: none): 456 nM

CGAUACACGGCAGGAUAUCGAUUCCAAAGGAAUCGAGAAGGGCCUCAUGUCGUGGAAACGUGACAUGAGGAUCACCCAUGUUGC [Omei SS(NG)1 Cv20] (Eterna round: R96, puzzle: Same State NG 1)
apparent KD of MS2 coat protein (input ligand: FMN 200 uM): 84.4 nM
apparent KD of MS2 coat protein [1]: 36.1 nM
apparent KD of MS2 coat protein (input ligand: none): 55.4 nM

GGAGCCGGUACUGAGGAUAUUCAUAUUAAAACAUGAGGAUCACCCAUGUAGGCCAGAAGGCCUUGGGAGAAGGCGGACCAGCUCG [Atgexeedri - 1] (puzzle: Same State 2)
apparent KD of MS2 coat protein [2]: 18.8 nM
apparent KD of MS2 coat protein [3]: 283 nM
apparent KD of MS2 coat protein [4]: 414 nM

GGUCGGACUCACAUGAGGAUCACCCAUGUUGGCGAAAGCCGACAGGAUAUCUGUCCGAAAAGGUCAGAGAAGGGUUAACCGACC [Fiskers NG3ss - 61] (Eterna round: R96, puzzle: Same State NG 3)
apparent KD of MS2 coat protein (input ligand: FMN 200 uM): 397 nM
apparent KD of MS2 coat protein [1]: 326 nM
apparent KD of MS2 coat protein (input ligand: none): 159 nM

AUUGCUUACGCAGGAUAUGAUGCGGAAACUGCGUCAGAAGGGUGAAAAGAAUCGUUGCAAGAAGACAUGAGGAUCACCCAUGUC [SameState NG1 #95] (Eterna round: R96, puzzle: Same State NG 1)
apparent KD of MS2 coat protein (input ligand: FMN 200 uM): 20 nM
apparent KD of MS2 coat protein [1]: 23 nM
apparent KD of MS2 coat protein (input ligand: none): 30.5 nM

UUUAGAUUCAGAGGAUAUUGAUGUUGUAAGUAACAAGAAGGCUGAUUGGUUAGAAUUGUUUAUUAACAUGAGGAUCACCCAUGU [JR_SSNG1_Sub010] (Eterna round: R96, puzzle: Same State NG 1)
apparent KD of MS2 coat protein (input ligand: FMN 200 uM): 18.1 nM
apparent KD of MS2 coat protein [1]: 28.2 nM
apparent KD of MS2 coat protein (input ligand: none): 30.6 nM

GAGUGGUGAAAAGGAUAUGCAUUGUUAUUCACUGUAGAAGGUUUUAACAUGAGGAUCACCCAUGUAGGACUAUUCCUGUGUUUU [Parity 60 - Jieux - Same State NG 1] (Eterna round: R96, puzzle: Same State NG 1)
apparent KD of MS2 coat protein (input ligand: FMN 200 uM): 17.6 nM
apparent KD of MS2 coat protein [1]: 14.8 nM
apparent KD of MS2 coat protein (input ligand: none): 23.2 nM

UGGCUGAGUCGAGGAUAUGAUCUUCAUAUAAUAACAUGAGGAUCACCCAUGUAUAAUUACAUGGAUCAGAAGGCGACUCAGCCA [SSNG2/13-B2] (Eterna round: R96, puzzle: Same State NG 2)
apparent KD of MS2 coat protein [1]: 362 nM

GCUCGACGUAUUGUCUACAUGAGGAUCACCCAUGUAGGUGCGGAGGAUAUCUACGUGUUUCAUGUAGAGAAGGUCGUGUCGAGC [SameState NG3 #90] (Eterna round: R96, puzzle: Same State NG 3)
apparent KD of MS2 coat protein (input ligand: FMN 200 uM): 56 nM
apparent KD of MS2 coat protein [1]: 155 nM
apparent KD of MS2 coat protein (input ligand: none): 177 nM

CGUAGGUAGCUGGAGGAUAUUCGAGUGGUAACAUGAGGAUCACCCAUGUGUUGAGAGGUACAUGAGGAGAAGGCUAGCUGCCUGC (puzzle: Same State 2)
apparent KD of MS2 coat protein [2]: 17.6 nM
apparent KD of MS2 coat protein [3]: 58.2 nM
apparent KD of MS2 coat protein [4]: 75.1 nM

AUAAAACAUGAGGAUCACCCAUGUCAACAAAGUCGAGGAUAUGGGUAAAUAAAAUAAGAACCAGAAGGCGAAUAAU [salish99_ss1_r3_028] (Eterna round: R96, puzzle: Same State 1)
apparent KD of MS2 coat protein (input ligand: FMN 200 uM): 122 nM
apparent KD of MS2 coat protein [1]: 713 nM
apparent KD of MS2 coat protein (input ligand: none): 941 nM

GGAGGACAUGAGGAUCACCCAUGUAGAUGGGCGCUAGGAUAUGCGAGAGGGUAGAGAGAAGCAGAAGGAGUGGAUU [JR_SS1_Sub041] (puzzle: Same State 1)
apparent KD of MS2 coat protein [2]: 156 nM
apparent KD of MS2 coat protein [3]: 259 nM
apparent KD of MS2 coat protein [4]: 214 nM
